How the values were obtained:
Assay in all cases: cell-based or functional assay
[1] = target: recombinant VWF (full-length, multimeric rVWF) (UniProt P04275)
[2] = target: von Willebrand factor (VWF), substrate of the in vitro cleavage of Table 1 (UniProt P04275)
FRETS-VWF73 substrate = FRETS-VWF73 substrate (UniProt P04275)

cleavage of multimeric rVWF [%]; Sample 1, 59 % Q97R [1]: 58%
cleavage of multimeric rVWF [%]; Sample 2, 64 % Q97R [1]: 52%
cleavage of multimeric rVWF [%]; Sample 3, 59 % Q97R [1]: 51%
cleavage of multimeric rVWF [%]; Sample 4, 56 % Q97R [1]: 60%
cleavage of multimeric rVWF [%]; Sample 5, 55 % Q97R [1]: 52%
cleavage of multimeric rVWF [%]; Sample 6, 64 % Q97R [1]: 57%
cleavage of multimeric rVWF [%]; Sample 7, 66 % Q97R [1]: 62%
cleavage of multimeric rVWF [%]; Sample 9, 67 % Q97R [1]: 62%
cleavage of multimeric rVWF [%]; Sample 10, 67 % Q97R [1]: 60%
cleavage of multimeric rVWF [%]; Sample 11, 60 % Q97R [1]: 61%
cleavage of multimeric rVWF [%]; Sample 12, 60 % Q97R [1]: 59%
cleavage of multimeric rVWF [%]; Sample 13, 71 % Q97R [1]: 60%
cleavage of multimeric rVWF [%]; Sample 14, 59 % Q97R [1]: 55%
cleavage of multimeric rVWF [%]; Sample 15, 52 % Q97R [1]: 59%
cleavage of multimeric rVWF [%]; Sample 16, 57 % Q97R [1]: 66%
cleavage of multimeric rVWF [%]; Sample 17, 61 % Q97R [1]: 58%
cleavage of multimeric rVWF [%]; Sample 18, 63 % Q97R [1]: 55%
cleavage of multimeric rVWF [%]; Sample 19, 54 % Q97R [1]: 78%
cleavage of multimeric rVWF [%]; Sample 20, 64 % Q97R [1]: 78%
cleavage of multimeric rVWF [%]; Sample 21, 64 % Q97R [1]: 75%
cleavage of multimeric rVWF [%]; Sample 22, 66 % Q97R [1]: 65%
cleavage of multimeric rVWF [%]; Sample 23, 61 % Q97R [1]: 66%
cleavage of multimeric rVWF [%]; Sample 24, 62 % Q97R [1]: 63%
cleavage of multimeric rVWF [%]; Sample 25, 61 % Q97R [1]: 63%
cleavage of multimeric rVWF [%]; Sample 26, 61 % Q97R [1]: 67%
cleavage of multimeric rVWF [%]; Sample 27, 59 % Q97R [1]: 67%
cleavage of multimeric rVWF [%]; Sample 28, 60 % Q97R [1]: 67%
cleavage of multimeric rVWF [%]; Sample 29, 55 % Q97R [1]: 68%
cleavage of multimeric rVWF [%]; Sample 30, 60 % Q97R [1]: 67%
cleavage of multimeric rVWF [%]; Sample 31, 64 % Q97R [1]: 71%
cleavage of multimeric rVWF [%]; Sample 32, 60 % Q97R [1]: 62%
cleavage of multimeric rVWF [%]; Sample 33, 65 % Q97R [1]: 78%
cleavage of multimeric rVWF [%]; Sample 34, 61 % Q97R [1]: 65%
cleavage of multimeric rVWF [%]; Sample 35, 72 % Q97R [1]: 66%
IU VWF RCo/ml left; ADAMTS13 0.1 U/ml, 0 h (IU VWF RCo/ml) [2]: 0.72
IU VWF RCo/ml left; ADAMTS13 0.1 U/ml, 15 seconds (IU VWF RCo/ml) [2]: 0.33
IU VWF RCo/ml left; ADAMTS13 0.1 U/ml, 30 seconds (IU VWF RCo/ml) [2]: 0.34
IU VWF RCo/ml left; ADAMTS13 0.1 U/ml, 1 minute (IU VWF RCo/ml) [2]: 0.3
IU VWF RCo/ml left; ADAMTS13 0.1 U/ml, 2 minutes (IU VWF RCo/ml) [2]: 0.24
IU VWF RCo/ml left; ADAMTS13 0.1 U/ml, 5 minutes (IU VWF RCo/ml) [2]: < 0.17
IU VWF RCo/ml left; ADAMTS13 0.5 U/ml, 0 h (IU VWF RCo/ml) [2]: 0.78
IU VWF RCo/ml left; ADAMTS13 0.5 U/ml, 15 seconds (IU VWF RCo/ml) [2]: < 0.17
IU VWF RCo/ml left; ADAMTS13 0.5 U/ml, 30 seconds (IU VWF RCo/ml) [2]: < 0.17
IU VWF RCo/ml left; ADAMTS13 0.5 U/ml, 1 minute (IU VWF RCo/ml) [2]: < 0.17
IU VWF RCo/ml left; ADAMTS13 0.5 U/ml, 2 minutes (IU VWF RCo/ml) [2]: < 0.17
IU VWF RCo/ml left; ADAMTS13 0.5 U/ml, 5 minutes (IU VWF RCo/ml) [2]: < 0.17
IU VWF RCo/ml left; ADAMTS13 1.0 U/ml, 0 h (IU VWF RCo/ml) [2]: 0.56
IU VWF RCo/ml left; ADAMTS13 1.0 U/ml, 15 seconds (IU VWF RCo/ml) [2]: < 0.17
IU VWF RCo/ml left; ADAMTS13 1.0 U/ml, 30 seconds (IU VWF RCo/ml) [2]: < 0.17
IU VWF RCo/ml left; ADAMTS13 1.0 U/ml, 1 minute (IU VWF RCo/ml) [2]: < 0.17
IU VWF RCo/ml left; ADAMTS13 1.0 U/ml, 2 minutes (IU VWF RCo/ml) [2]: < 0.17
IU VWF RCo/ml left; ADAMTS13 1.0 U/ml, 5 minutes (IU VWF RCo/ml) [2]: < 0.17
specific activity U/mg (UV); Sample 1, 59 % Q97R (FRETS-VWF73 substrate): 1640 U/mg (UV)
specific activity U/mg (UV); Sample 2, 64 % Q97R (FRETS-VWF73 substrate): 1580 U/mg (UV)
specific activity U/mg (UV); Sample 3, 59 % Q97R (FRETS-VWF73 substrate): 1400 U/mg (UV)
specific activity U/mg (UV); Sample 4, 56 % Q97R (FRETS-VWF73 substrate): 1460 U/mg (UV)
specific activity U/mg (UV); Sample 5, 55 % Q97R (FRETS-VWF73 substrate): 1360 U/mg (UV)
specific activity U/mg (UV); Sample 6, 64 % Q97R (FRETS-VWF73 substrate): 1470 U/mg (UV)
specific activity U/mg (UV); Sample 7, 66 % Q97R (FRETS-VWF73 substrate): 2040 U/mg (UV)
specific activity U/mg (UV); Sample 8, 70 % Q97R (FRETS-VWF73 substrate): 1610 U/mg (UV)
specific activity U/mg (UV); Sample 9, 67 % Q97R (FRETS-VWF73 substrate): 1480 U/mg (UV)
specific activity U/mg (UV); Sample 10, 67 % Q97R (FRETS-VWF73 substrate): 1450 U/mg (UV)
specific activity U/mg (UV); Sample 11, 60 % Q97R (FRETS-VWF73 substrate): 1580 U/mg (UV)
specific activity U/mg (UV); Sample 12, 60 % Q97R (FRETS-VWF73 substrate): 1620 U/mg (UV)
specific activity U/mg (UV); Sample 13, 71 % Q97R (FRETS-VWF73 substrate): 1970 U/mg (UV)
specific activity U/mg (UV); Sample 14, 59 % Q97R (FRETS-VWF73 substrate): 1390 U/mg (UV)
specific activity U/mg (UV); Sample 15, 52 % Q97R (FRETS-VWF73 substrate): 1330 U/mg (UV)
specific activity U/mg (UV); Sample 16, 57 % Q97R (FRETS-VWF73 substrate): 1410 U/mg (UV)
specific activity U/mg (UV); Sample 17, 61 % Q97R (FRETS-VWF73 substrate): 1380 U/mg (UV)
specific activity U/mg (UV); Sample 18, 63 % Q97R (FRETS-VWF73 substrate): 1440 U/mg (UV)
specific activity U/mg (UV); Sample 19, 54 % Q97R (FRETS-VWF73 substrate): 1660 U/mg (UV)
specific activity U/mg (UV); Sample 20, 64 % Q97R (FRETS-VWF73 substrate): 1700 U/mg (UV)
specific activity U/mg (UV); Sample 21, 64 % Q97R (FRETS-VWF73 substrate): 1690 U/mg (UV)
specific activity U/mg (UV); Sample 22, 66 % Q97R (FRETS-VWF73 substrate): 1620 U/mg (UV)
specific activity U/mg (UV); Sample 23, 61 % Q97R (FRETS-VWF73 substrate): 1540 U/mg (UV)
specific activity U/mg (UV); Sample 24, 62 % Q97R (FRETS-VWF73 substrate): 1510 U/mg (UV)
specific activity U/mg (UV); Sample 25, 61 % Q97R (FRETS-VWF73 substrate): 1530 U/mg (UV)
specific activity U/mg (UV); Sample 26, 61 % Q97R (FRETS-VWF73 substrate): 1760 U/mg (UV)
specific activity U/mg (UV); Sample 27, 59 % Q97R (FRETS-VWF73 substrate): 1860 U/mg (UV)
specific activity U/mg (UV); Sample 28, 60 % Q97R (FRETS-VWF73 substrate): 1750 U/mg (UV)
specific activity U/mg (UV); Sample 29, 55 % Q97R (FRETS-VWF73 substrate): 1730 U/mg (UV)
specific activity U/mg (UV); Sample 30, 60 % Q97R (FRETS-VWF73 substrate): 1850 U/mg (UV)
specific activity U/mg (UV); Sample 31, 64 % Q97R (FRETS-VWF73 substrate): 1800 U/mg (UV)
specific activity U/mg (UV); Sample 32, 60 % Q97R (FRETS-VWF73 substrate): 1750 U/mg (UV)
specific activity U/mg (UV); Sample 33, 65 % Q97R (FRETS-VWF73 substrate): 1620 U/mg (UV)
specific activity U/mg (UV); Sample 34, 61 % Q97R (FRETS-VWF73 substrate): 1720 U/mg (UV)
specific activity U/mg (UV); Sample 35, 72 % Q97R (FRETS-VWF73 substrate): 1650 U/mg (UV)
Substance: rADAMTS13 batches composed of a mixture of wildtype rADAMTS13 and Q97R variant

Reference: patent US20230203469A1
